In patent US20220026429A1, “COMPOSITIONS AND METHODS OF ALTERING A NUCLEIC ACID WITH RIBONUCLEASE” (The Research Foundation for the State University of New York, priority 2020, published 2022):

How the values were obtained:
RNase H = target: T1, RNase H (Escherichia coli, UniProt P0A7Y4); test: DNA nanoswitch RNase H inhibition assay (gel readout); assay type: biochemical; details: nanoswitch incubated with different concentrations of kanamycin, then RNase H (0.5 U) added; FIG. 4F; read-out: IC50 value, inhibition of the RNA cleavage activity of RNase H
T1 construct: purchased New England Biolabs (NEB)
T1 sequence (P0A7Y4 whole entry): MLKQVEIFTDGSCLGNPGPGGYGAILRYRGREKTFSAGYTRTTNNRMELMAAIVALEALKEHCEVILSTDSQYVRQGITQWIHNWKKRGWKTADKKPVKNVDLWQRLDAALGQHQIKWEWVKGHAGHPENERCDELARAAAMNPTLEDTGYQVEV
Method: (§1) Locked nanoswitches, such as DNA-nanoswitch-nucleic acid constructs were first mixed with RNase H buffer (1× final) and placed at 37° C. 1 μl of RNase H (different units/μl) was added to 10 μl of locked nanoswitches such as DNA-nanoswitch-nucleic acid constructs and incubated at 37° C. For sensitivity experiments, samples were incubated for 1 hour at 37° C. For time series experiments, RNase H enzyme was added at different time points (from 16 mins to 0 min). After incubation, samples were mixed with 1 μl GelRed (1×final) and 2 μl loading dye (15% Ficoll, 0.1% bromophenol blue), and run on 0.8% agarose gels. A similar protocol was used for the other enzymes.
(§2) Nanoswitches were run in 0.8% agarose gels, cast from molecular biology grade agarose (Fisher BioReagents) dissolved in 0.5×Tris-borate EDTA (TBE). Gels were typically run at 75 V (constant voltage) at room temperature. Samples were pre-stained by mixing 1× GelRed stain with the samples before loading. Gels were imaged with a Bio-Rad Gel Doc XR+gel imager and analyzed using ImageJ.
Next, the potential of assays of the present disclosure was tested for screening RNase H inhibitors. […] To further make a rapid readout, a start-to-finish assay was performed within 15 mins, by incubating the nanoswitches with RNase H for 5 mins followed by agarose gel electrophoresis for 10 mins (FIG. 4G). […]

[1] = test system: locked nanoswitches (RNA lock strand); test: DNA nanoswitch RNase activity assay, panel of RNases; assay type: biochemical; details: agarose gel readout, FIG. 4E
Method: as §1, §2
As a step toward testing ribonuclease presence in biological samples, a known concentration of RNase H was spiked into fetal bovine serum (FBS) and cell lysates extracted from human (HeLa) and murine (C2C12) cell lines. RNase detection was preserved in 10% FBS and cell lysates with the unlocking of the DNA nanoswitch in both biofluids (FIGS. 4B-4C).

| Molecule | IC50 (RNase H) [mM] | response of the locked nanoswitches (unlooping) to RNases [1] |
| --- | --- | --- |
| NC[C@H]1O[C@H](O[C@H]2[C@H](O)[C@@H](O[C@H]3O[C@H](CO)[C@@H](O)[C@H](N)[C@H]3O)[C@H](N)C[C@@H]2N)[C@H](O)[C@@H](O)[C@@H]1O [kanamycin] | 30.6 |  |
| RNase A: endonucleases from Enzyme Class EC 3.1.27.5 (protein, UniProt P61823 27-150, looked up) Ribonuclease pancreatic: KETAAAKFERQHMDSSTSAASSSNYCNQMMKSRNLTKDRCKPVNTFVHESLADVQAVCSQKNVACKNGQTNCYQSYSTMSITDCRETGSSKYPNCAYKTTQANKHIIVACEGNPYVPVHFDASV |  | high levels of unlooping |
| RNase T: ribonuclease enzyme purchased from New England Biolabs (protein, UniProt P30014 1-215, looked up) Ribonuclease T: MSDNAQLTGLCDRFRGFYPVVIDVETAGFNAKTDALLEIAAITLKMDEQGWLMPDTTLHFHVEPFVGANLQPEALAFNGIDPNDPDRGAVSEYEALHEIFKVVRKGIKASGCNRAIMVAHNANFDHSFMMAAAERASLKRNPFHPFATFDTAALAGLALGQTVLSKACQTAGMDFDSTQAHSALYDTERTAVLFCEIVNRWKRLGGWPLSAAEEV |  | no activity |
